According to publication PMC6985235 (2020):

Target: His-TvCyP1 (Trichomonas vaginalis, UniProt A2DT06 1-173)
Assay: ITC; 25°C

B1: His-Myb3^53–180 (domain or fragment)
chain: KGPFTEAEDDLIREYVKENGPQNWPRITSFLPNRSPKQCRERWFNHLDPAVVKHAWTPEEDETIFRNYLKLGSKWSVIAKLIPGRTDNAIKNRWNSSISKRISTNSNHKEILLPDRSKKRKAADVPKK
Binder B1 has a Kd of 2040 µM.
